In patent US8110402B2, “Metal abstraction peptide (MAP) tag and associated methods” (University of Kansas, priority 2008, dated 2012):
Residue numbers refer to the chain shown, from its start. Numbers in names are those of the source. Where a SMILES comes first, the peptide text is derived from it. [ ]: non-standard residue; d: D form.

Tests used:
[1] = UV-Vis absorption spectroscopy of Ni coordination; type: binding
Method: UV-Vis absorption spectra were used to measure the concentration of the PRL-1 protein. Briefly, the concentrations of purified PRL-1 analogs were measured at 280 nm and calculated using an extinction coefficient of 19420 M^−1 cm^−1. Because of possible metal-protein absorption interferences in the high 200 nm region, the validity of the UV-Vis quantification method was confirmed by the Bradford method. Spectra of PRL-1 analogs at concentrations of 10, 5, 2.5, and 1.25 mg/mL were collected on a Cary 100 UV-Vis spectrophotometer from 800 to 200 nm. […] The resulting spectra were resolved and peak positions were evaluated using GRAMS/AI 7.00 software. Three methods were aimed at metal displacement. In the first, PRL-1-WT (e.g., wild type) samples were reduced using 20 mM β-mercaptoethanol (BME), and imidazole was added to a concentration of 10 mM. For […] protein samples, this corresponds to […] solution excess of BME to compete with the two C-terminal cysteine thiols and a 200-fold solution excess of imidazole to compete with the single C-terminal histidine imidazole side chain. New baselines were taken and the spectra recalculated. In the second method, baselines were recalculated for buffer containing 100 μM EDTA, and the spectrum for the PRL-1-WT sample that was exchanged ten million fold in 100 μM EDTA was recorded. […]

[2] = ICP-MS of metal bound to purified PRL-1 variants (Ni); type: binding; details: for Ni bound (ICP-MS): PRL-1 variants analyzed in parallel, Ni-IMAC purified
Method: (§1) ICP-MS was used to characterize the bound metal. Briefly, purified protein samples were digested in concentrated nitric acid in PFA microcentrifuge tubes (Savillex, #s 7240, 7241) at 68±1° C. for 16.5±0.7 hours. Based on protein quantification prior to digestion, the sample was then diluted to 1.5 μM in 20 mM ammonium bicarbonate, pH 8.2, filtered through a 0.2 μm nylon filter, and injected into a VG Elemental VGII+XS Inductively-Coupled Plasma-Mass Spectrometer fitted with a microconcentric nebulizer. A minimum of two separately prepared samples were analyzed for each protein variant. Each sample was scanned twice and standards were run before, between, and after each sample scan. Drift was monitored during washes between scans of both sample and standard injections.
To investigate our hypothesis that the chromophore arises from protein abstraction of the metal from the charged IMAC matrix, samples were subjected to ICP-MS for semi-quantitative analysis. As extensive washing is used to remove background metals, the values obtained from this method inherently underestimate the amount of metal bound, but can be used to assess the relative affinity of different metals for the protein. Additionally, to identify an endogenous metal ligand that may have been bound to PRL-1 during expression in the cells, ICP-MS was used to look for the presence of a transition metal from the first two rows in the periodic table as well as other common biologically relevant metals. […] On average 500 μM Ni-purified protein samples were digested in nitric acid for 16 h at 70° C. were determined to contain approximately 180 μM Ni, yielding a Ni to protein stoichiometry of 1:2.7+/−0.7. Zn was also detected in the Ni-purified samples at approximately 60 μM. […] Because ICP-MS analysis is conducted in a flow of Ar and the most abundant isotope of Ar has the same mass as Ca, Ca binding cannot be determined from the primary mass signal. Nonetheless, because a much higher amount of Ca was present in the cell culture media compared to Zn and yet the ICP-MS signal corresponds largely to zinc, the protein is unlikely to bind calcium.

[3] = ICP-MS of metal bound to purified PRL-1 (Zn); type: binding
Method: as §1
To investigate our hypothesis that the chromophore arises from protein abstraction of the metal from the charged IMAC matrix, samples were subjected to ICP-MS for semi-quantitative analysis. […] On average 500 μM Ni-purified protein samples were digested in nitric acid for 16 h at 70° C. were determined to contain approximately 180 μM Ni, yielding a Ni to protein stoichiometry of 1:2.7+/−0.7. Zn was also detected in the Ni-purified samples at approximately 60 μM. […]

[4] = Metal displacement from Ni-purified PRL-1 followed by UV-Vis (BME, imidazole, EDTA, guanidinium hydrochloride/heat); type: physicochemical
Method: UV-Vis absorption spectra were used to measure the concentration of the PRL-1 protein. Briefly, the concentrations of purified PRL-1 analogs were measured at 280 nm and calculated using an extinction coefficient of 19420 M^−1 cm^−1. Because of possible metal-protein absorption interferences in the high 200 nm region, the validity of the UV-Vis quantification method was confirmed by the Bradford method. Spectra of PRL-1 analogs at concentrations of 10, 5, 2.5, and 1.25 mg/mL were collected on a Cary 100 UV-Vis spectrophotometer from 800 to 200 nm. […] The resulting spectra were resolved and peak positions were evaluated using GRAMS/AI 7.00 software. Three methods were aimed at metal displacement. In the first, PRL-1-WT (e.g., wild type) samples were reduced using 20 mM β-mercaptoethanol (BME), and imidazole was added to a concentration of 10 mM. For 0.5 mM protein samples, this corresponds to 400-fold solution excess of BME to compete with the two C-terminal cysteine thiols and a 200-fold solution excess of imidazole to compete with the single C-terminal histidine imidazole side chain. New baselines were taken and the spectra recalculated. In the second method, baselines were recalculated for buffer containing 100 μM EDTA, and the spectrum for the PRL-1-WT sample that was exchanged ten million fold in 100 μM EDTA was recorded. Finally, 10 mg/mL protein samples were denatured in 5.6 M guanidinium hydrochloride and heated to 90° C., new baselines were taken, and the spectra were collected at 0, 2, 4 and 6 hrs.

[5] = Solubility of metal-free protein; type: physicochemical; details: metal-free (apo) protein

Molecule: NC(=O)C[C@@H](N)C(=O)N[C@H](CS)C(=O)N[C@H](CS)C(=O)O [NCC] (H-[dN]-[dC]-[dC]-OH)
- absorbance spectrum after incubation with metal-charged IMAC resin ([1]; synthetic tripeptides): mimics that observed for the peptide-metal complex embedded in PRL-1

B1: PRL-1: recombinant wild-type human PRL-1 protein containing the C-terminal NCC motif (protein, UniProt Q93096 1-170, looked up)
Protein tyrosine phosphatase …: MARMNRPAPVEVTYKNMRFLITHNPTNATLNKFIEELKKYGVTTIVRVCEATYDTTLVEKEGIHVLDWPFDDGAPPSNQIVDDWLSLVKIKFREEPGCCIAVHCVAGLGRAPVLVALALIEGGMKYEDAVQFIRQKRRGAFNSKQLLYLEKYRPKMRLRFKDSNGHRNNC
- Ni bound (ICP-MS) [2]: approximately 120 μM
- Ni content (ICP-MS) ([2]; on average 500 μM Ni-purified protein, nitric acid digest 16 h at 70° C.): approximately 180 μM
- Zn detected (ICP-MS) ([3]; Ni-purified samples): approximately 60 μM
- Zn present (ICP-MS) ([3]; purified using Zn-IMAC): 270 µM
- loss of peaks at 318, 421 and 526 nm (Ni release) ([4]; 5.6 M guanidinium hydrochloride at 90° C.): only gradually disappear over 6 hrs
- effect of 10 mM imidazole on absorption profile ([4]; Ni-purified): no effect
- effect of ten million-fold exchange into 100 μM EDTA on spectrum ([4]; Ni-purified): little effect
- effect of 20 mM BME on absorption profile ([4]; Ni-purified, pH 7.4): did not alter
- reversibility of Ni binding ([4]; pH 7.4): irreversible

B2: PRL-1-H166A: PRL-1 mutant with His166 of the NGH motif replaced by Ala (protein, UniProt Q93096 1-170, looked up, variant H166A)
Protein tyrosine phosphatase …: B1 Protein tyrosine phosphatase … with H166A
- Ni bound (ICP-MS) [2]: ~60 µM
- decrease in signal by absorption spectroscopy ([1]; relative to wild-type PRL-1, Ni-purified): 20%

B3: C170S: PRL-1 mutant with Cys170 replaced by Ser (protein, UniProt Q93096 1-170, looked up, variant C170S)
Protein tyrosine phosphatase …: B1 Protein tyrosine phosphatase … with C170S
- Ni bound (ICP-MS) [2]: No Ni was detected

B4: Apo PRL-1: PRL-1 protein without bound metal (protein, UniProt Q93096 1-170, looked up)
Protein tyrosine phosphatase …: B1 Protein tyrosine phosphatase …
modifications: apo form, no bound metal
- solubility [5]: poorly soluble
